The results in this text go back to a protein production outcome set (Wang et al. 2014).
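Further: failed if final PepcDB status was selected cloned or expressed and not failed if soluble or beyond.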

This data set in a line: label from the status in PepcDB records.
Regarding “MSVWLLQMKTNAIITDITKSIVKMDRILVYRHTNPDPDAIGAQFGLVALLKAAYPEKLVVAMAPVPGHLAWIDTTDEQLVTPQATDLVIAVDCANHERLAGELPTGAFVIKIDHHPNHDPYGQLNWVDETYSSCSEMIYELAQAGCFTVTAAVATKLYAGIIGDTVRFSTPETSTRTLKIASALAATDIDIATISHHEMDLTPALSKLYGYVLSEQTIEPSGLAHVVLPQRIFSDLSLEYGDEDALVPLPGNLTTVKVWLFFIETPQGQYRVHFRSKAINVNAVAKAFNGGGHPLASGAFVPDLATVGQVIEQMQAQVLAATAVDLEHHHHHH”, the protein production entry is reported as “failed”. Under “MSVYHHILLAVDFSSEDSQVVQKVRNLASQIGARLSLIHVLDNIPMPDTPYGTAIPLDTETTYDAMLDVEKQKLSQIGNTLGIDPAHRWLVWGEPREEIIRIAEQENVDLIVVGSHGRHGLALLLGSTANSVLHYAKCDVLAVRLRDD” stands “not failed”; under “MSWSKVKYFFFDTPEEKEAAQYGYEKEQTDMKKQQDPPEQQDVTFPKAQPKQNVVSIETAKQSSKVVLLEPRTYSEAQGIADHLKGRRAVVINLQRMSTDQAVRIVDFLSGTVYAIGGDIQKIGPKTFMCTPENVDIVGAISELFGEEEETNIKRWLEHHHHHH”, “not failed”; under “MSWTVVYSAQAKQDLRNIFEYIAHSLCSPDAAKSQTRRIMAEIHSLDEMPLRYRIYDDEPWRSQGLRFFPVDYYLVFYLPVASANTVKIVRIMYGGRDVKKHLEEELLEHHHHHH”, “failed”. Under “MSYEFYGKTEQEAIKKAMRDLELKEGEFDVEILDKERVGFLFKKEMIKIRVSPHAKEVKKDDFEIKIGDEICDKILEFVKEMLIKMGYSVHLTIEPKEGGYVKISIETDSPNILIGREGKNLDSLQLLTNVYASKLIGENGAFNRVILDIGDYRERFKSRFINLAINSFHKVKRTRRSILLPSMNPFERRIVHTTLNRYSDIKTESEGDGNIKRIRVSYVRNNRYGINNSRGYQKRDIGFKK” stands “failed”.

For “MSYLEYTVKSTPSGLRKILYMNWPLTLLLISVASAGFLMLYSVAGGSFSPWAEPQIKRFMAGLVVMTAVAMVPIWFWRNMAAVAYGGSLVLLVMVELFGAVGMGAQRWIDLGFMRLQPSELTKITLVMVLAAYYDWLPGKKTSRPLWVLVPVLIILVPTALVLKQPDLGTAILLLSAGGALMFLAGVHWAYFAAVIAAGVGLITAVFKSRGTDWQLLKDYQFRRIDTFLDPSSDPLGAGYHITQSKIALGSGGWSGRGFMQGTQSRLNFLPEKHTDFIFTTLAEEFGFIGGISLLSLYALIIAFCVATALATRDRFSSLVTLGIAVNFFLFFAVNMSMVMGLAPVVGVPLPMVSYGGSAMLVLLVAFGLVHSAHIHRPR”, the protein production entry was “failed”.

For “MSYLLRSDPVSRIHPEPQSLTSFDHFDLLPDSLLLLIFDKVADVKDLGRCCIVSRRFHSLVPFVENVLVRVDCVISDDDSSSSDENHRFSLNTASISDAGGAGGSFSALFRLVFAPIFKPFQMLGQILGPKRSSSSFDASFSAINDEIGVTHHSPTQVLKNFGEIRFLKIELPTGELGIEDGILLKWRADFGSTLDNCMILGASSVIQSNSVKNHENSVDEDNGNIPESFYTNGGLKLRVVWTISSLIAASARHYLLQPIINEHKSLDRLVLSDADGQGVLCMNREQLEELRVTPLSASSASKRTLVPALNMRLWYAPELDLPDGTVLKGATLVAIRPSESKKEVCDASWLSDAFEEPFGTVAKMLIKRRTYCLEMNSF”, the protein production entry is “failed”. On to “MSYNVAILMSTYNGMDYLREQIESIRSQTYKQWNLYIRDDGSSDNTIDLIKTFVHQDTRIHFINADKQVNRGVKRSFLNLLSSVKADFYMFCDQDDYWLPNKVKLTLDAMISDYHNKPRLVFTNMNLVDSNLKVLDKASLSAVNISYWTSKDQLMFDNIVTGCTVMINNQLKQYVFPISAKKIVMHDWYIAQLASQLGDIQYVTDPTILYRQHESNQVGVNKSLFGKVKKLARFNDFQTGVILQISQGRLTQKKSQVVFSKTTQAFLNWNFTCPLILKVLPIIQNNFKKHTWPGTIALNLALLRRKKS”, for which the protein production result is “failed”. Under “MSYRGLPAMTRNDLTIYDDVAAQWWSDDIRWVRTLKAMVPGRLAFFDRKIDWRDKRVLDLGCAGGFMAEALCERGAIVTGIDPAAQAIDAAREHAELDGHDIRYDVGKGETLPYADDSFDAVVCVDVLEHVEDLDLVLSEVARTLVPGGMFFFDTINRNPLARFATITMAEDILRLLPKGTHDPDMFIKPGELHAALGRAGFVPGR” stands “failed”; under “MSYSPSLKEIIAILQKYTSKNYQSNCKTRPDGKLELSLNGVFEEIVKTPGKTRYVTHKQLDQKLKDFKQDLMVELHDTFATKTDLKESEARINQKLEALIQIVMVQGEQIKVHGEQINKLTQAVEKQGEKIEAQGQQIQKVNETLNFVVESLGSIHKRLDSMEGRLDSMENRLDKLESKLEHHHHHH”, “not failed”. Under “MSYVLLLLGFALLIKGADFFVDGSSSIARLLNVSPLLIGLTIVAFGTSSPEATASIIAALNGNPDVALGNVIGSNMFNITLVVGLTALLSPLIVTNATLRKEIPFTLLASIALYIFINDQMIEGAVESTLSRSEGLILLLIFCVFLYYIFEVARTSPREQKIVQDFAIKPTWRKNIFLSILGLAMIIGGGELVIRHSTAIAFSHGMSETLVGLTIVAIGTSLPELVTSLTAALKKESEIALGNIVGSSIFNIFFVLGTAATITPMHVDSRVVVDLLLLIFLTLLLLVFSRTRYTVGKYEGLILASFYIGYMVYIIWRN” stands “failed”; under “MTAAGFNSILCLRQLVRLNRRQYSAPAKSVLSGSQTNDQATPPPTSKSADKMRGWQLHNYGDIDELQLSEMLKIPQIRCSNECLVRIRATAVNPIDLAMLRGYGATVLNKMRCQPGDGIEFPLILGREFCGELVQTGMGVSLPLGSRVWGVVPLQATIGSHAEYVAVPSYCLAPAPKELDDYEAASVLYAGLTAWSGLYITGGLGGPCGATTASGGGAHKRVLVLGGSGGVGTLAIQILKSQKVQVLATCSENAIEMVRNLGADLVVDYNNPQAMEELCKYAPYDIVLDCAGQGGQKAAESKYDFRQYITFSSPLLANIDKQGLGVGALKNVFDLFQTNVRSVTQRGGLVKWGFFSPAPQGIQFLQKLVEQRKLMPLIDSSYGFSELPKAFEKMKSGHLRGKIVVKLREETGD”, “failed”. Under “MTAAILVTGATGKLGQRVVNRLLQKQAKVRVLTRRREDALKLWGDSVDIAEGNFSDPASLKGASRDVDRVFLLSPIGKTLAADQNAVVDAALSAGVSQIVKLSGSDWTLKNAARSISGTAHAAVEKHLAETGIAHTVLRPNAWMQVALEPVVAALRNGEDVPARFGNAAVSFIDADDIADVAVEALSASAPPAGTLVLTGHEALAALGIARIAARILHRPVGVSHQSASTFPAHIGGFEQKAIAEFGQLIGEGLAASTTDIVEQIIGHPPRSVENYLRARLAVAQQGDHSEGEKTWR” stands “failed”. Consider “MTAALSSNFLLVAFFLYLAATIFYAVSIMGKKWRNKEGEMKGNRWGTFGYYSAIIALLFALGYFITRWMVAGFAPVSNMFEYVTFFGICIGLAFVIINAIYRSNILGLFTMPTVMLMIAYASVFPSEVAPLIPALQSNWLALHVTTVALGQGILAVSFASGLVYLIRTIDYSIQSWKTFWLEFILYSVITVVGFILITYTFQAMNYEAKFNYVNENDVEATMEYHLPPIVGPHEGQLISETGNQPLVNMPAWIKSDQLNTVIWSFLVGLVLYLLLYLVFRKPVGAILQPIVKRVSPQLVDEISYRAIAIGFPVFTLGGLIFAMIWAQIAWTRFWGWDPKEVWALITFLFYAAYLHLRLSKGWHGERSAWLCVIGFAIIMFNLVFVNLVIAGLHSYAGGM”, for which the protein production result is listed as “failed”.
